B1: 6×His-tagged PfSkp1 (natural protein, P. falciparum, UniProt Q8ID38 1-162, looked up)
chain: MKNDKIKLVSFEGDEFIVDKNTASMSTVIMNILEVMTAEEDTIPLPNIKTPILKKIIEYMEYHINNPADEIPKPLITSNLQDVVSSWDFDFVNTDKETLYELIEASNYLDIKPLLDLTCGKIASMMKDKTTEEIRAEFDIVNDFTREEEKQIREENRWCGDI
notes: P. falciparum Skp1 (PfSkp1, PF3D7_1367000), complete coding region amplified from genomic DNA, in pET28a; also called HisSkp; HisPfSkp1; source: E. coli Rosetta-gami 2(DE3) pLysS, purified (Ni-NTA, native conditions); not shown: His6, N-terminal, kept
B2: 6×His/SUMO-tagged PfRbx1 (natural protein, P. falciparum, UniProt O77367 1-107, looked up)
chain: MADNITNDKRDIFKIHKWSAVAAWSWDISVDNCAICRNHIMDLCIECQAKTTDHENDKDKKIDKEGCTVAWGVCNHAFHLHCISRWIKARQVCPLDNTTWEFQKATD
notes: P. falciparum Rbx1 (PfRbx1, PF3D7_0319100), complete coding region, subcloned into pSMO; also called HisSUMO/Rbx; HisSUMO/PfRbx1; source: E. coli Rosetta-gami 2(DE3) pLysS, purified (Ni-NTA, native conditions); not shown: His6, N-terminal, kept; SUMO, N-terminal, kept

Assays:
[1] = biological target: T1, GST-tagged N-terminal of PfCullin-1 (1-300 aa) (P. falciparum, UniProt Q8IAU5 1-300); assay: far-Western, overlay or dot blot; dot blot protein overlay: different amounts of HisSkp, HisSUMO/Rbx or HisSUMO spotted on nitrocellulose, blocked (3% BSA in PBS-T), overlaid with 10 μg of GST or GST-tagged protein for 12 h at 4°C, detected with anti-GST antibodies; conditions: both partners purified
T1 construct: P. falciparum Cullin-1 (PfCullin-1, PF3D7_0811000), N-terminal coding region, residues 1-300, in pGEX-6P-1; also called GST/Cul1N; GST/PfCul1N; source: E. coli BL21(DE3), purified (glutathione agarose, native conditions); not shown: GST, N-terminal, kept
T1 sequence (looked up): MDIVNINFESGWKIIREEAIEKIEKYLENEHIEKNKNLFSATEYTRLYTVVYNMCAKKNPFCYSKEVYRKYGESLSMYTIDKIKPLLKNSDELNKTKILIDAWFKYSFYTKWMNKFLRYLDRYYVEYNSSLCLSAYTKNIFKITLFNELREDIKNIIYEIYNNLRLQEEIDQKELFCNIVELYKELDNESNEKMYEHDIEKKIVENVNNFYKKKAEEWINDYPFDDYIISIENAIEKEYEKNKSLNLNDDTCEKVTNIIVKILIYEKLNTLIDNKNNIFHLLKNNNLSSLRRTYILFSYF

[2] = biological target: T2, GST-tagged C-terminal of PfCullin-1 (601-829 aa) (P. falciparum, UniProt Q8IAU5 601-829); assay: as above; conditions: both partners purified
T2 construct: P. falciparum Cullin-1 (PfCullin-1, PF3D7_0811000), C-terminal coding region, residues 601-829, amplified from cDNA, in pGEX-6P-1; also called GST/Cul1C; GST/PfCul1C; source: E. coli BL21(DE3), purified (glutathione agarose, native conditions); not shown: GST, N-terminal, kept
T2 sequence (looked up): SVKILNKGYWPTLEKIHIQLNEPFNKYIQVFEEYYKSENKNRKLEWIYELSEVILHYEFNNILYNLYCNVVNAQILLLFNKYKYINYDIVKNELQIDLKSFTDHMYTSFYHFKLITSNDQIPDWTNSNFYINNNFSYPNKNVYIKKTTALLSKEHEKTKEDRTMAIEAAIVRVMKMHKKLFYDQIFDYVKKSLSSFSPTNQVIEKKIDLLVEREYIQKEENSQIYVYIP

Row | Binder | binding result [1] | binding result [2]
1 | B1 | binds | 
2 | B2 |  | binds

Reference: paper PMC10927090, “Plasmodium falciparum contains functional SCF and CRL4 ubiquitin E3 ligases, and CRL4 is critical for cell division and membrane integrity” (PLOS Pathogens, 2024)
